Measurements taken from the supplement of paper PMC7877785.
± gives the uncertainty stated by the source.

Experiment: self-splicing fitness, log relative to wild type (ln ratio); higher = more splicing; Tetrahymena group I intron in knt gene, E. coli kanamycin selection, DiMSum; sequences stand for … in CUCUCU…GGAGGGAAAAGUUAUCAGGCAUGCACCUGGUAGCUAGUCUUUAAACCAAUAGAUUGCAUCGGUUUAAAAGGCAAGACCGUCAAAUUGCGGGAAAGGGGUCAACAGCCGUUCAGUACCAAGUCUCAGGGGAAACUUUGAGAUGGCCUUGCAAAGGGUAUGGUAAUAAGCUGACGGACAUGGUCCUAACCACGCAGCCAAGUCCUAAGUCAACAGAUCUUCUGUUGAUAUGGAUGCAGUUCACAGACUAAAUGUCGGUCGGGGAAGAUGUAUUCUUCUCAUAAGAUAUAGUCGGACCUCUCCUUAAUGGGAGCUAGCGGAUGAAGUGAUGCAACACUGGAGCCGCUGGGAACUAAUUUGUAUGCGAAAGUAUAUUGAUUAGUUUUGGAGUACUCGUGGUCG
How it was run: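 A randomised library covering all eight P1ex-region intron nucleotides was built with the intron in the knt kanamycin-resistance gene on pET-22b(+) and held in E. coli BL21(DE3). Cells were grown overnight at 37°C or 30°C on LB agar, with or without 25 μg/mL kanamycin, plus 100 μg/mL carbenicillin, 50 μM IPTG and 0.2% rhamnose, and pooled colonies were amplicon-sequenced on an Illumina HiSeq 2500. DiMSum fitness is the error-weighted combination of wild-type-normalised replicate fold changes, kanamycin versus none.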

| Sequence | self-splicing fitness (ln) (30 °C) | self-splicing fitness (ln) (37 °C) |
| --- | --- | --- |
| GCCUAGCAAUAUUACGAGUU | -1.58 ± 0.061 | -0.309 ± 0.078 |
| GCCUAGCAAUAUUACGAUGC | -1.01 ± 0.081 | 0.0478 ± 0.13 |
| GCCUAGCAAUAUUACGAUUG | -2.49 ± 0.23 | -2.32 ± 0.26 |
| GCCUAGCAAUAUUACGCACC | -0.962 ± 0.26 | -0.41 ± 0.21 |
| GCCUAGCAAUAUUACGCAGA | -3.96 ± 0.33 | -2.06 ± 0.23 |
| GCCUAGCAAUAUUACGCAUA | -0.13 ± 0.18 | -0.428 ± 0.15 |
| GCCUAGCAAUAUUACGCCCC | -0.575 ± 0.27 | 0.517 ± 0.49 |
| GCCUAGCAAUAUUACGCGGU | -4.03 ± 0.28 | -3 ± 0.26 |
| GCCUAGCAAUAUUACGCGUC | -1.92 ± 0.15 | -0.202 ± 0.12 |
| GCCUAGCAAUAUUACGGAUU | -0.548 ± 0.085 | 0.334 ± 0.091 |
| GCCUAGCAAUAUUACGGCUC | -1.99 ± 0.15 | -0.272 ± 0.17 |
| GCCUAGCAAUAUUACGGUCC | -3.85 ± 0.33 | -1.66 ± 0.24 |
| GCCUAGCAAUAUUACGUAAC | -0.911 ± 0.17 | -0.248 ± 0.2 |
| GCCUAGCAAUAUUACGUAGA | -1.73 ± 0.16 | 0.22 ± 0.13 |
| GCCUAGCAAUAUUACGUAUC | -1.26 ± 0.076 | -0.501 ± 0.094 |
| GCCUAGCAAUAUUACGUCCG | -3 ± 0.42 | -2.03 ± 0.26 |
| GCCUAGCAAUAUUACGUCUU | -1.54 ± 0.098 | -1.68 ± 0.11 |
| GCCUAGCAAUAUUACGUGAC | -1.12 ± 0.17 | 0.101 ± 0.17 |
| GCCUAGCAAUAUUACGUUAC | -2.72 ± 0.2 | -1.49 ± 0.18 |
| GCCUAGCAAUAUUACGUUAU | -1.52 ± 0.12 | -0.39 ± 0.14 |
| GCGAAGCAAUAUUACGAAAC | -1.86 ± 0.35 | -0.819 ± 0.44 |

| Sequence | self-splicing fitness (ln) (30 °C) | self-splicing fitness (ln) (37 °C) |
| --- | --- | --- |
| GCGAAGCAAUAUUACGAAGG | -0.597 ± 0.23 | -0.295 ± 0.3 |
| GCGAAGCAAUAUUACGAAUG | -1.95 ± 0.15 | -0.756 ± 0.17 |
| GCGAAGCAAUAUUACGAUGG | -2.12 ± 0.13 | -0.641 ± 0.14 |
| GCGAAGCAAUAUUACGAUUC | -1.46 ± 0.097 | -0.598 ± 0.13 |
| GCGAAGCAAUAUUACGCCCG | -2.36 ± 0.31 | -1.68 ± 0.48 |
| GCGAAGCAAUAUUACGCCGA |  | -1.78 ± 0.35 |
| GCGAAGCAAUAUUACGCGAC | -1.88 ± 0.17 | -1.1 ± 0.19 |
| GCGAAGCAAUAUUACGCGAG | -2.08 ± 0.22 | -3.24 ± 0.3 |
| GCGAAGCAAUAUUACGCGAU | -2.49 ± 0.44 | -1.74 ± 0.47 |
| GCGAAGCAAUAUUACGCGCG | -2.34 ± 0.17 | -1.28 ± 0.22 |
| GCGAAGCAAUAUUACGCGCU | -1.85 ± 0.24 | -1.48 ± 0.4 |
| GCGAAGCAAUAUUACGCGGC | -3.23 ± 0.22 | -2.35 ± 0.25 |
| GCGAAGCAAUAUUACGGGAA | -3.48 ± 0.43 | -2.68 ± 0.33 |
| GCGAAGCAAUAUUACGGGCG | -1.84 ± 0.11 | -0.509 ± 0.13 |
| GCGAAGCAAUAUUACGGGCU | -2.68 ± 0.19 | -1.88 ± 0.17 |
| GCGAAGCAAUAUUACGGGGC | -3.1 ± 0.24 | -1.82 ± 0.23 |
| GCGAAGCAAUAUUACGUAAG | -2.04 ± 0.11 | -1.41 ± 0.13 |
| GCGAAGCAAUAUUACGUAGG | -1.32 ± 0.092 | -1.43 ± 0.13 |
| GCGAAGCAAUAUUACGUCUA | -1.16 ± 0.1 | -1.3 ± 0.093 |
| GCGAAGCAAUAUUACGUGAU | -2.53 ± 0.092 | -0.973 ± 0.098 |
| GCGAAGCAAUAUUACGUGCG | -2.31 ± 0.16 | -1.5 ± 0.18 |

| Sequence | self-splicing fitness (ln) (30 °C) | self-splicing fitness (ln) (37 °C) |
| --- | --- | --- |
| GCGAAGCAAUAUUACGUGGG | -3.87 ± 0.24 | -2.67 ± 0.26 |
| GCGAAGCAAUAUUACGUGUU | -2.52 ± 0.11 | -2.07 ± 0.11 |
| GCGCAGCAAUAUUACGAAAC | -0.473 ± 0.16 | -0.354 ± 0.19 |
| GCGCAGCAAUAUUACGACCG | -1.37 ± 0.18 | -0.215 ± 0.21 |
| GCGCAGCAAUAUUACGAUUU | -1.07 ± 0.094 | 0.585 ± 0.11 |
| GCGCAGCAAUAUUACGCAGU | -2.63 ± 0.31 | -1.04 ± 0.29 |
| GCGCAGCAAUAUUACGCAUG | -3.37 ± 0.28 | -3.3 ± 0.33 |
| GCGCAGCAAUAUUACGCGUG | -1.93 ± 0.11 | -1.36 ± 0.13 |
| GCGCAGCAAUAUUACGCUCC | -0.982 ± 0.34 | -1.01 ± 0.45 |
| GCGCAGCAAUAUUACGGCAU | -0.756 ± 0.075 | 0.684 ± 0.11 |
| GCGCAGCAAUAUUACGGUAC | -1.22 ± 0.082 | 0.195 ± 0.095 |
| GCGCAGCAAUAUUACGGUCC | -1.22 ± 0.12 | 0.23 ± 0.17 |
| GCGCAGCAAUAUUACGGUUA | -1.11 ± 0.084 | -0.631 ± 0.08 |
| GCGCAGCAAUAUUACGUCAC | -4.04 ± 0.17 | -1.65 ± 0.11 |
| GCGCAGCAAUAUUACGUGGG | -2.53 ± 0.1 | -1.6 ± 0.11 |
| GCGCAGCAAUAUUACGUUCU | -0.657 ± 0.093 | 0.0134 ± 0.11 |
| GCGGAGCAAUAUUACGAAUA |  | -3.02 ± 0.4 |
| GCGGAGCAAUAUUACGACAG | -3.33 ± 0.5 | -1.09 ± 0.45 |
| GCGGAGCAAUAUUACGACGC |  | -2.45 ± 0.21 |
| GCGGAGCAAUAUUACGAGCA |  | -0.82 ± 0.4 |
| GCGGAGCAAUAUUACGAUUG | -3.31 ± 0.19 | -2.23 ± 0.24 |

| Sequence | self-splicing fitness (ln) (30 °C) | self-splicing fitness (ln) (37 °C) |
| --- | --- | --- |
| GCGGAGCAAUAUUACGCAAC | -2.35 ± 0.48 |  |
| GCGGAGCAAUAUUACGCAUU | -2.8 ± 0.39 |  |
| GCGGAGCAAUAUUACGCGAG |  | -2.39 ± 0.36 |
| GCGGAGCAAUAUUACGCGUG | -2.56 ± 0.29 | -1.85 ± 0.29 |
| GCGGAGCAAUAUUACGCUUG | -3.14 ± 0.24 | -1.06 ± 0.2 |
| GCGGAGCAAUAUUACGGAAG |  | -2.11 ± 0.36 |
| GCGGAGCAAUAUUACGGCUA |  | -1.81 ± 0.39 |
| GCGGAGCAAUAUUACGGUCC | -2.54 ± 0.39 |  |
| GCGGAGCAAUAUUACGGUGG | -3.54 ± 0.35 | -2.27 ± 0.39 |
| GCGGAGCAAUAUUACGUAAC | -1.54 ± 0.34 |  |
| GCGGAGCAAUAUUACGUAUC | -1.83 ± 0.33 |  |
| GCGGAGCAAUAUUACGUAUG | -3.28 ± 0.31 | -2.58 ± 0.41 |
| GCGGAGCAAUAUUACGUCAA | -2.42 ± 0.37 |  |
| GCGGAGCAAUAUUACGUCAG | -3.19 ± 0.31 | -2.38 ± 0.35 |
| GCGGAGCAAUAUUACGUCCU | -1.31 ± 0.25 | -0.651 ± 0.41 |
| GCGGAGCAAUAUUACGUCUU | -2.3 ± 0.22 | -0.899 ± 0.22 |
| GCGGAGCAAUAUUACGUUCG |  | -0.666 ± 0.37 |
| GCGGAGCAAUAUUACGUUGG |  | -3.01 ± 0.4 |
